Here are results for 1 molecule from article PMC8184781, “A histone H3K4me1-specific binding protein is required for siRNA accumulation and DNA methylation at a subset of loci targeted by RNA-directed DNA methylation” (Nature Communications, 2021).

This test concerns the target H4K20me1 peptide (monomethyllysine at K20). The test can be described thus: ITC; Microcal PEAQ-ITC; peptide (about 1.0–1.5 mM) and protein (about 0.8–0.12 mM as printed) in 100 mM NaCl, 20 mM HEPES pH 7.0, 2 mM β-mercaptoethanol; 20 °C. To be noted: both partners purified. In general terms: Isothermal titration calorimetry measures the heat released or taken up as one component is titrated into another.

B1: RDM15 Tudor domain (residues 598–662) (domain or fragment, Arabidopsis thaliana, UniProt Q8GUP3 598-662, looked up)
chain: LGQGKASGESLVGSRIKVWWPMDQAYYKGVVESYDAAKKKHLVIYDDGDQEILYLKNQKWSPLDE
notes: A Se-Met labelled form was also made; the structure was solved by SAD, so the crystal may hold the Se-Met protein; also called C-terminal Tudor domain of RDM15; source: E. coli BL21(DE3), purified (HisTrap, ulp1 digestion, second HisTrap, Superdex G75)
Take B1: the Kd worked out at 22.9 µM.

One may read the Kd as a measure of binding affinity in units of concentration. A high value points to lower affinity.
